Measured values: US6861578B1, “Method for plant protection against insects or nematodes by transformation with a nucleic acid encoding equistatin” (Plant Research International B.V., priority 1997, dated 2005)

B1: bovine kininogen: Type III cystatin (protein, UniProt P01044 19-621, looked up)
Kininogen-1: QESSQEIDCNDQDVFKAVDAALTKYNSENKSGNQFVLYRITEVARMDNPDTFYSLKYQIKEGDCPFQSNKTWQDCDYKDSAQAATGECTATVAKRGNMKFSVAIQTCLITPAEGPVVTAQYECLGCVHPISTKSPDLEPVLRYAIQYFNNNTSHSHLFDLKEVKRAQRQVVSGWNYEVNYSIAQTNCSKEEFSFLTPDCKSLSSGDTGECTDKAHVDVKLRISSFSQKCDLYPVKDFVQPPTRLCAGCPKPIPVDSPDLEEPLSHSIAKLNAEHDGAFYFKIDTVKKATVQVVAGLKYSIVFIARETTCSKGSNEELTKSCEINIHGQILHCDANVYVVPWEEKVYPTVNCQPLGQTSLMKRPPGFSPFRSVQVMKTEGSTTVSLPHSAMSPVQDEERDSGKEQGPTHGHGWDHGKQIKLHGLGLGHKHKHDQGHGHHGSHGLGHGHQKQHGLGHGHKHGHGHGKHKNKGKNNGKHYDWRTPYLASSYEDSTTSSAQTQEKTEETTLSSLAQPGVAITFPDFQDSDLIATVMPNTLPPHTESDDDWIPDIQTEPNSLAFKLISDFPETTSPKCPSRPWKPVNGVNPTVEMKESHDFDLVDALL
B2: Recombinant Kunitz PCPI8.3 (produced in Pichia pastoris) (protein, potato, UniProt P20347 43-222, looked up)
chain: LVLPEVYDQDGNPLRIGERYIINNPLLGAGAVYLYNIGNLQCPNAVLQHMSIPQFLGEGTPVVFVRKSESDYGDVVRVMTVVYIKFFVKTTKLCVDQTVWKVNDEQLVVTGGKVGNENDIFKIMKTDLVTPGGSKYVYKLLHCPSHLGCKNIGGNFKNGYPRLVTVDDDKDFIPFVFIKA
B3: chicken cystatin (protein, UniProt P01038 24-139, looked up)
chain: SEDRSRLLGAPVPVDENDEGLQRALQFAMAEYNRASNDKYSSRVVRVISAKRQLVSGIKYILQVEIGRTTCPKSSGDLQSCEFHDEPEMAKYTTCTFVVYSIPWLNQIKLLESKCQ
B4: human cystatin c (protein, UniProt P01034 27-146, looked up)
chain: SSPGKPPRLVGGPMDASVEEEGVRRALDFAVGEYNKASNDMYHSRALQVVRARKQIVAGVNYFLDVELGRTTCTKTQPNLDNCPFHDQPHLKRKAFCSFQIYAVPWQGTMTLSKSTCQDA
B5: potato multicystatin (protein, UniProt P37842 1-756, looked up)
chain: MAIVGGLVDVPFENKVEFDDLARFAVQDYNQKNDSSLEFKKVLNVKQQIVAGIMYYITFEATEGGNKKEYEAKILLRKWEDLKKVVGFKLVGDDSTMPGGIVNVPNPNNTKFQELARFAIQDYNKKQNAHLEFVENLNVKEQVVAGIMYYITLAATDDAGKKKIYKAKIWVKEWEDFKKVVEFKLVGDDIAKLGGITDVPFPNNPEFQDLARFAIQVYNKKENVHLEFVENLNVKQQVVAGMMYYITLAAIDAGKKKIYETKIWVKEWEDFKKVVEFKLVGDDSAKTGGIINVPNPNSPEFQDLARFAVQDYNNTQNAHLEFVENLNVKEQLVSGMMYYITLAATDAGNKKEYEAKIWVKEWEDFKKVIDFKLVGNDSAKKLGGFTEVPFPNSPEFQDLTRFAVHQYNKDQNAHLEFVENLNVKKQVVAGMLYYITFAATDGGKKKIYETKIWVKVWENFKKVVEFKLVGDDSAKLGGIINVPFPNNPEFQDLARFAVQDYNKKENAHLEFVENLNVKEQLVAGMLYYITLVAIDAGKKKIYEAKIWVKEWENFKKVIEFKLIGDDSAIIGGFTDVPFPNNPEFQDLARFAVQDYNKKENAHLEYVENLNVKEQLVAGMIYYITLVATDAGKKKIYEAKIWVKEWEDFKKVVEFKLVGDDSAKPGGIIIVPFPNSPEFQDLARFAVQDFNKKENGHLEFVENLNVKEQVVAGMMYYITLAATDARKKEIYETKILVKEWENFKEVQEFKLVGDATK
B6: porcine stefin B (protein, UniProt Q29290 1-98, looked up)
chain: MMCGAPSATQPATAEIQAIADKVKSQLEEKENKTFPVFKAVEFKSQVVAGRNLFIKVQVDDDDFVHLRVFESLPHENKPLTLSSYQTNKSRHDELTYF
B7: porcine stefin D1 (protein, UniProt P35479 1-103, looked up)
chain: MESEEMLAGGLTEPRPATPEIQEIANKVKPQLEEKTNKTYEKFEAIIYRSQVVAGTNYYIKVHVGGNNYVHIRVFQSLPHQEDPLKLIGYQVDKTKDDELTGF
B8: rat stefin A (protein, UniProt P01039 1-103, looked up)
chain: MDPGTTGIVGGVSEAKPATPEIQEVADKVKRQLEEKTNEKYEKFKVVEYKSQVVAGQILFMKVDVGNGRFLHMKVLRGLSGDDDLKLLDYQTNKTKNDELTDF

What was measured:
[1] = target: potato protease inhibitor-insensitive cysteine proteases of Colorado potato beetle (Leptinotarsa decemlineata) larval gut extracts; experiment: cell-based or functional assay
[2] = target: proteases in extracts of adult leafminer flies (Liriomyza trifolii); experiment: cell-based or functional assay
[3] = test system: Colorado potato beetle larval gut extracts (potato protease inhibitor-insensitive cysteine proteases); experiment: General proteolytic activity of Colorado potato beetle larval gut extracts, azocasein; format: biochemical, Leptinotarsa decemlineata
From the text: Guts of final instar Colorado potato beetle larvae reared on methyl jasmonate induced plants were isolated and extracted essentially as described (Bolter and Jongsma, J. Insect Physiol. 41: 1071-1078). In these gut extracts the proteases that are sensitive to the protease inhibitors of potato are already complexed. The residual protease activity is composed of potato protease-inhibitor-insensitive proteases which were induced in response to the methyl jasmonate induced potato inhibitors. These proteases are the proteases that render the beetle larvae insensitive to protease inhibitor defense of the potato plant. Wle tested a broad range of different cysteisie protease inhibitors for activity specifically against these induced potato protease inhibitor-insensitive cysteine protesses. Nearly all of these inhibitors were purified at the Jozef Stefan Institute in Slovenia. Testing their potential against Colorado potato beetle was done using both general protein substrates (azocasein, table 2) as well as specific synthetic substrates (L-Arg-pNA, table 3; pGlu-Phe-Leu-pNA, table 4; Z-Phe-Arg-pNA, table 5; Z-Arg-Arg-pNA, table 6). In specific cases inhibitors were tested at two concentrations, eauimolar and in excess to the protease, in order to obtain an indication of the tightness of the complex. […] Importantly, this class of inhibitors was capable of inhibiting nearly all general cysteine protease activity. The equistatin peptide molecule and a functional derivative thereof were not very active against the aminopeptidase-like cysteine protease activity. […] The best combination of inhibitors for full toxicity against the Colorado potato beetle would therefore be a combination of equistatin or p41 invariant chain fragment and stefin-like inhibitors.

| Molecule | residual general proteolytic activity (azocasein) in excess of inhibitor (% residual activity) [1] | also measured |
| --- | --- | --- |
| porcine stefin D2 (from UniProt P80736 1-35) | 105 |  |
| bromelain inhibitor | 110 |  |
| human LMW kininogen (from UniProt P01042 19-427) | 65 |  |
| lens cystatin | 60 |  |
| soybean cystatin | 65 |  |
| Recombinant human stefin A (from UniProt P01040 1-98) | 90 | residual amino-peptidase activity (L-Arg-pNA), equimolar inhibitor (% of residual activity) [1]: 60; residual amino-peptidase activity (L-Arg-pNA), excess inhibitor (% of residual activity) [1]: 10; residual broad spectrum endoprotease activity (Z-Phe-Arg-pNA), equimolar inhibitor (% of residual activity) [1]: 95; residual broad spectrum endoprotease activity (Z-Phe-Arg-pNA), excess inhibitor (% of residual activity) [1]: 80; residual narrow spectrum endoprotease activity (Z-Arg-Arg-pNA), excess inhibitor (% of residual activity) [1]: 90; residual tri-peptidil-peptidase and endoprotease activity (pGlu-Phe-Leu-pNA), equimolar inhibitor (% of residual activity) [1]: 95; residual tri-peptidil-peptidase and endoprotease activity (pGlu-Phe-Leu-pNA), excess inhibitor (% of residual activity) [1]: 90 |
| cowpea cystatin | 75 |  |
| Recombinant potato cystatin (p.cystatin), a monomer of multicystatin expressed as a fusion protein with glutathione-S-transferase |  | residual protease activity (FITC-hemoglobin), pH 3.5 (% residual activity) [2]: 73 |
| Chelidonium majus cystatin | 100 |  |
| PCPI 6.6 | 120 |  |
| bovine kininogen | 110 |  |
| Aspartic protease inhibitor (API) purified from potato |  | residual protease activity (FITC-hemoglobin), pH 3.5 (% residual activity) [2]: 37 |
| human kininogen 3rd domain (from UniProt P01042 273-376) | 20 |  |
| B1 |  | Residual activity in excess of inhibitor [3]: 110% |
| B2 |  | residual protease activity (FITC-hemoglobin), pH 3.5 (% residual activity) [2]: 43 |
| B3 | 105 | Residual activity in excess of inhibitor [3]: 105% |
| B4 | 105 | Residual activity in excess of inhibitor [3]: 105% |
| B5 | 90 | Residual activity in excess of inhibitor [3]: 90% |
| B6 | 100 | Residual activity in excess of inhibitor [3]: 100% |
| B7 | 105 |  |
| B8 | 90 |  |
